How the values were obtained:
[1] = biological target: ɸ8 P4Δ281 (C-terminally truncated ɸ8 P4, missing residues 281–321) (bacteriophage ɸ8); test: crystal structure; ɸ8 P4Δ281 crystals from 5 mg/ml protein; 100 mM Tris pH 8.0, 18% PEG 1000; hexamer
[2] = biological target: ɸ8 P4 (full-length packaging NTPase P4 of bacteriophage ɸ8) (bacteriophage ɸ8); test: crystal structure; ɸ8 P4 crystals grown at 24°C; 100 mM sodium acetate pH 4.6, […] ammonium sulphate, DTT; protein 3 mg/ml; apo form; hexamer
[3] = biological target: ɸ13 P4 (full-length packaging NTPase P4 of bacteriophage ɸ13) (bacteriophage ɸ13); test: crystal structure; ɸ13 P4 crystals grown at 20°C from 12 mg/ml protein; 100 mM Tris–HCl pH 7.0, 900 mM trisodium citrate, 200 mM NaCl; apo form; hexamer
ɸ12 P4 = biological target: T1, ɸ12 P4 (Pseudomonas phage phi12, UniProt Q94M05); test: X-ray crystal structure, […] Å; type: binding; conditions: 5 mM UTP, pH 4.8; nucleotide site; competitive with ATP, not hydrolysed
T1 construct: gene 4; plasmid pPG27 (template for mutants), E. coli BL21(DE3) or B834(DE3); hexamer

[4] = biological target: the molecule itself; test: crystal structure; ɸ6 P4Δ310 crystals grown at 24°C from 3.5 mg/ml protein in 20 mM HEPES pH 8.0, 5 mM MgCl2, 2 mM CaCl2, 5 mM ADP, 100 mM NaCl; reservoir 6% PEG 4000, 90 mM sodium acetate pH 4.5; ADP bound; hexamer
[5] = biological target: the molecule itself; test: not stated; quaternary structure of purified ɸ12 P4 mutants as listed in Table 1; method not given
[6] = biological target: the molecule itself; test: crystal structure; wild-type ɸ12 P4 crystals; 10% PEG 1500, 100 mM sodium acetate pH 4.8, 5 mM UTP; hexamer

Molecule: ɸ8 P4Δ281 (C-terminally truncated ɸ8 P4, missing residues 281–321) (domain or fragment)
- stoichiometry N [1]: 6

Molecule: ɸ8 P4 (full-length packaging NTPase P4 of bacteriophage ɸ8) (enzyme)
- stoichiometry N [2]: 6

Molecule: ɸ13 P4 (full-length packaging NTPase P4 of bacteriophage ɸ13) (enzyme)
- stoichiometry N [3]: 6

Molecule: O=c1ccn([C@@H]2O[C@H](COP(=O)(O)OP(=O)(O)OP(=O)(O)O)[C@@H](O)[C@H]2O)c(=O)[nH]1 [UTP]
- X-ray crystal structure, 1.9 Å (ɸ12 P4): pyrimidine triphosphates can bind the hexamer without being hydrolysed

B1: ɸ6 P4Δ310 (C-terminally truncated packaging NTPase P4 of bacteriophage ɸ6, missing residues 310–331) (domain or fragment, UniProt P11125 1-309, looked up)
chain: MPIVVTQAHIDRVGIAADLLDASPVSLQVLGRPTAINTVVIKTYIAAVMELASKQGGSLAGVDIRPSVLLKDTAIFTKPKAKSADVESDVDVLDTGIYSVPGLARKPVTHRWPSEGIYSGVTALMGATGSGKSITLNEKLRPDVLIRWGEVAEAYDELDTAVHISTLDEMLIVCIGLGALGFNVAVDSVRPLLFRLKGAASAGGIVAVFYSLLTDISNLFTQYDCSVVMVVNPMVDAEKIEYVFGQVMASTVGAILCADGNVSRTMFRTNKGRIFNGAAPLAADTHMPSMDRPTSMKALDHTSIASVAP
notes: packaging NTPase P4 of bacteriophage ɸ6, C-terminally truncated, missing residues 310–331; expressed from plasmid pJTJ7.3/7; Crystallised with ADP, Mg2+ and Ca2+; source: E. coli BL21(DE3) or B834(DE3), purified (Heparin, Q-sepharose, Superdex 200)
- stoichiometry N [4]: 6

B2: ɸ12 P4 Y288A (enzyme, bacteriophage ɸ12)
chain: MIHLYDAKSFAKLRAAQYAAFHTDAPGSWFDHTSGVLESVEDGTPVLAIGVESGDAIVFDKNAQRIVAYKEKSVKAEDGSVSVVQVENGFMKQGHRGWLVDLTGELVGCSPVVAEFGGHRYASGMVIVTGKGNSGKTPLVHALGEALGGKDKYATVRFGEPLSGYNTDFNVFVDDIARAMLQHRVIVIDSLKNVIGAAGGNTTSGGISRGAFDLLSDIGAMAASRGCVVIASLNPTSNDDKIVELVKEASRSNSTSLVISTDVDGEWQVLTRTGEGLQRLTHTLQTSAGEHSVLTIHTSKQSGGKQASGKAIQTVIKNDELESVLRRLTSN
notes: packaging NTPase P4 of bacteriophage ɸ12 (gene 4) with Y288A; made from plasmid pPG27, plasmid pDK29; also called ɸ12 Y288A; source: E. coli BL21(DE3) or B834(DE3), purified (Heparin, Q-sepharose, Superdex 200)
- stoichiometry N [5]: 6

B3: wild-type ɸ12 P4 (packaging NTPase P4 of bacteriophage ɸ12) (enzyme)
chain: MIHLYDAKSFAKLRAAQYAAFHTDAPGSWFDHTSGVLESVEDGTPVLAIGVESGDAIVFDKNAQRIVAYKEKSVKAEDGSVSVVQVENGFMKQGHRGWLVDLTGELVGCSPVVAEFGGHRYASGMVIVTGKGNSGKTPLVHALGEALGGKDKYATVRFGEPLSGYNTDFNVFVDDIARAMLQHRVIVIDSLKNVIGAAGGNTTSGGISRGAFDLLSDIGAMAASRGCVVIASLNPTSNDDKIVELVKEASRSNSTSLVISTDVDGEWQVLTRTGEGLQRLTHTLQTSYGEHSVLTIHTSKQSGGKQASGKAIQTVIKNDELESVLRRLTSN
notes: packaging NTPase P4 of bacteriophage ɸ12 (gene 4), wild type; plasmid pPG27; Crystallised here with 5 mM UTP; also called P4 ɸ12; source: E. coli BL21(DE3) or B834(DE3), purified (Heparin, Q-sepharose, Superdex 200)
- stoichiometry N [6]: 6

B4: ɸ12 P4-Q278A (enzyme)
chain: MIHLYDAKSFAKLRAAQYAAFHTDAPGSWFDHTSGVLESVEDGTPVLAIGVESGDAIVFDKNAQRIVAYKEKSVKAEDGSVSVVQVENGFMKQGHRGWLVDLTGELVGCSPVVAEFGGHRYASGMVIVTGKGNSGKTPLVHALGEALGGKDKYATVRFGEPLSGYNTDFNVFVDDIARAMLQHRVIVIDSLKNVIGAAGGNTTSGGISRGAFDLLSDIGAMAASRGCVVIASLNPTSNDDKIVELVKEASRSNSTSLVISTDVDGEWQVLTRTGEGLARLTHTLQTSYGEHSVLTIHTSKQSGGKQASGKAIQTVIKNDELESVLRRLTSN
notes: packaging NTPase P4 of bacteriophage ɸ12 (gene 4) with Q278A; made from plasmid pPG27, plasmid pDK30; Crystallised with 5 mM AMPcPP; also called ɸ12 Q278A; Q278A mutant; source: E. coli BL21(DE3) or B834(DE3), purified (Heparin, Q-sepharose, Superdex 200)
- stoichiometry N [5]: 6

B5: ɸ12 P4-S292A (enzyme)
chain: MIHLYDAKSFAKLRAAQYAAFHTDAPGSWFDHTSGVLESVEDGTPVLAIGVESGDAIVFDKNAQRIVAYKEKSVKAEDGSVSVVQVENGFMKQGHRGWLVDLTGELVGCSPVVAEFGGHRYASGMVIVTGKGNSGKTPLVHALGEALGGKDKYATVRFGEPLSGYNTDFNVFVDDIARAMLQHRVIVIDSLKNVIGAAGGNTTSGGISRGAFDLLSDIGAMAASRGCVVIASLNPTSNDDKIVELVKEASRSNSTSLVISTDVDGEWQVLTRTGEGLQRLTHTLQTSYGEHAVLTIHTSKQSGGKQASGKAIQTVIKNDELESVLRRLTSN
notes: packaging NTPase P4 of bacteriophage ɸ12 (gene 4) with S292A; made from plasmid pPG27, plasmid pDK31; Crystallised with 5 mM AMPcPP; also called ɸ12 S292A; S292A mutant; source: E. coli BL21(DE3) or B834(DE3), purified (Heparin, Q-sepharose, Superdex 200)
- stoichiometry N [5]: 6

B6: ɸ12 P4 TTS202-204LKK (enzyme, bacteriophage ɸ12)
chain: MIHLYDAKSFAKLRAAQYAAFHTDAPGSWFDHTSGVLESVEDGTPVLAIGVESGDAIVFDKNAQRIVAYKEKSVKAEDGSVSVVQVENGFMKQGHRGWLVDLTGELVGCSPVVAEFGGHRYASGMVIVTGKGNSGKTPLVHALGEALGGKDKYATVRFGEPLSGYNTDFNVFVDDIARAMLQHRVIVIDSLKNVIGAAGGNLKKGGISRGAFDLLSDIGAMAASRGCVVIASLNPTSNDDKIVELVKEASRSNSTSLVISTDVDGEWQVLTRTGEGLQRLTHTLQTSYGEHSVLTIHTSKQSGGKQASGKAIQTVIKNDELESVLRRLTSN
notes: packaging NTPase P4 of bacteriophage ɸ12 (gene 4) with LKK instead of TTS (residues 202–204); cloned in the pT7-7 vector at NdeI-EcoRI sites; also called ɸ12 TTS202-204LKK; source: E. coli BL21(DE3) or B834(DE3), purified (Heparin, Q-sepharose, Superdex 200)
- stoichiometry N [5]: 6

B7: ɸ12 P4 ΔTTS202-204 (enzyme, bacteriophage ɸ12)
chain: MIHLYDAKSFAKLRAAQYAAFHTDAPGSWFDHTSGVLESVEDGTPVLAIGVESGDAIVFDKNAQRIVAYKEKSVKAEDGSVSVVQVENGFMKQGHRGWLVDLTGELVGCSPVVAEFGGHRYASGMVIVTGKGNSGKTPLVHALGEALGGKDKYATVRFGEPLSGYNTDFNVFVDDIARAMLQHRVIVIDSLKNVIGAAGGNGGISRGAFDLLSDIGAMAASRGCVVIASLNPTSNDDKIVELVKEASRSNSTSLVISTDVDGEWQVLTRTGEGLQRLTHTLQTSYGEHSVLTIHTSKQSGGKQASGKAIQTVIKNDELESVLRRLTSN
notes: packaging NTPase P4 of bacteriophage ɸ12 (gene 4) with the L1 loop central residues T202-T203-S204 deleted; made from plasmid pPG27, plasmid pDK249; also called ɸ12 ΔTTS202-204; source: E. coli BL21(DE3) or B834(DE3), purified (Heparin, Q-sepharose, Superdex 200)
- stoichiometry N [5]: 6

Source: paper PMC3814363, “Tracking in atomic detail the functional specializations in viral RecA helicases that occur during evolution” (Nucleic Acids Research, 2013)
